Measured values published in patent US20150344570A1 (published 2015).

T1: FcγRIIa H (human, UniProt P12318 34-217)
T1 construct: extracellular domain; also called FcγRIIa type H; 2aH; not shown: His tag at the C terminus
T1 sequence (looked up): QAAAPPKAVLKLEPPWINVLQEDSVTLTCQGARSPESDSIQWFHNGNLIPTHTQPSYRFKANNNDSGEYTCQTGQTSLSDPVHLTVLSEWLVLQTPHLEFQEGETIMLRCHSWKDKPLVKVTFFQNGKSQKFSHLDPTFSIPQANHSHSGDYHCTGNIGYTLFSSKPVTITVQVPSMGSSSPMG

T2: FcγRIIb (human, UniProt P31994 43-217)
T2 construct: extracellular domain; also called 2b; not shown: His tag at the C terminus
T2 sequence (looked up): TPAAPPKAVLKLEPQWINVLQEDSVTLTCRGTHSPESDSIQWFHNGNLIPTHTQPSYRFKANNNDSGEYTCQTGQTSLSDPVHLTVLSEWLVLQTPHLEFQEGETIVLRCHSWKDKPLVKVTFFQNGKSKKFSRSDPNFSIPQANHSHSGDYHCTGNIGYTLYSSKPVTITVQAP

B1: GpH7-A5/GpH7-B3 variant G237_11K/GpL16-k0 (antibody, human IgG1, kappa)
heavy 1: not shown
heavy 2: not shown
light: DIVMTQSPLSLPVTPGEPASISCQASESLVHSNRNTYLHWYLQKPGQSPQLLIYKVSNRFSGVPDRFSGSGSGTDFTLKISRVEAEDVGVYYCSQNTHVPPTFGQGTKVEIERTVAAPSVFIFPPSDEQLKSGTASVVCLLNNFYPREAKVQWKVDNALQSGNSQESVTEQDSKDSTYSLSSTLTLSKADYEKHKVYACEVTHQGLSSPVTKSFNRGEC
notes: Heterodimerized anti-glypican-3 IgG1; mutation only in the GpH7-B3 H chain; also called He Ab
B2: GpH7-A5/GpH7-B3 variant G237_12R/GpL16-k0 (antibody, human IgG1, kappa)
heavy 1: not shown
heavy 2: not shown
light: B1 light
notes: as for B1
B3: GpH7-A5/GpH7-B3 variant G236_07I/GpL16-k0 (antibody, human IgG1, kappa)
heavy 1: not shown
heavy 2: not shown
light: B1 light
notes: Heterodimerized IgG1; mutation in the GpH7-B3 chain only; also called He Ab
B4: GpH7-A5/GpH7-B3 variant G236_08L/GpL16-k0 (antibody, human IgG1, kappa)
heavy 1: not shown
heavy 2: not shown
light: B1 light
notes: as for B3
B5: GpH7-A5/GpH7-B3 variant G236_12R/GpL16-k0 (antibody, human IgG1, kappa)
heavy 1: not shown
heavy 2: not shown
light: B1 light
notes: as for B3
B6: GpH7-A5/GpH7-B3 variant G236_13S/GpL16-k0 (antibody, human IgG1, kappa)
heavy 1: not shown
heavy 2: not shown
light: B1 light
notes: as for B3
B7: GpH7-A5/GpH7-B3 variant G236_14T/GpL16-k0 (antibody, human IgG1, kappa)
heavy 1: not shown
heavy 2: not shown
light: B1 light
notes: as for B3
B8: GpH7-A5/GpH7-B3 variant G236_15Y/GpL16-k0 (antibody, human IgG1, kappa)
heavy 1: not shown
heavy 2: not shown
light: B1 light
notes: as for B3
B9: GpH7-A5/GpH7-B3 variant L234_01G/GpL16-k0 (antibody, human IgG1, kappa)
heavy 1: not shown
heavy 2: not shown
light: B1 light
notes: as for B3
B10: GpH7-A5/GpH7-B3 variant L234_02A/GpL16-k0 (antibody, human IgG1, kappa)
heavy 1: not shown
heavy 2: not shown
light: B1 light
notes: as for B3
B11: GpH7-A5/GpH7-B3 variant L234_04F/GpL16-k0 (antibody, human IgG1, kappa)
heavy 1: not shown
heavy 2: not shown
light: B1 light
notes: as for B3
B12: GpH7-A5/GpH7-B3 variant L234_05P/GpL16-k0 (antibody, human IgG1, kappa)
heavy 1: not shown
heavy 2: not shown
light: B1 light
notes: as for B3
B13: GpH7-A5/GpH7-B3 variant L234_11K/GpL16-k0 (antibody, human IgG1, kappa)
heavy 1: not shown
heavy 2: not shown
light: B1 light
notes: as for B3
B14: GpH7-A5/GpH7-B3 variant L234_12R/GpL16-k0 (antibody, human IgG1, kappa)
heavy 1: not shown
heavy 2: not shown
light: B1 light
notes: as for B3
B15: GpH7-A5/GpH7-B3 variant L234_13S/GpL16-k0 (antibody, human IgG1, kappa)
heavy 1: not shown
heavy 2: not shown
light: B1 light
notes: as for B3
B16: GpH7-A5/GpH7-B3 variant L234_14T/GpL16-k0 (antibody, human IgG1, kappa)
heavy 1: not shown
heavy 2: not shown
light: B1 light
notes: as for B3
B17: GpH7-A5/GpH7-B3 variant L234_15Y/GpL16-k0 (antibody, human IgG1, kappa)
heavy 1: not shown
heavy 2: not shown
light: B1 light
notes: as for B3
B18: GpH7-A5/GpH7-B3 variant L234_16H/GpL16-k0 (antibody, human IgG1, kappa)
heavy 1: not shown
heavy 2: not shown
light: B1 light
notes: as for B3
B19: GpH7-A5/GpH7-B3 variant L234_19Q/GpL16-k0 (antibody, human IgG1, kappa)
heavy 1: not shown
heavy 2: not shown
light: B1 light
notes: as for B3
B20: GpH7-A5/GpH7-B3 variant L235_01G/GpL16-k0 (antibody, human IgG1, kappa)
heavy 1: not shown
heavy 2: not shown
light: B1 light
notes: as for B3
B21: GpH7-A5/GpH7-B3 variant L235_03V/GpL16-k0 (antibody, human IgG1, kappa)
heavy 1: not shown
heavy 2: not shown
light: B1 light
notes: as for B3
B22: GpH7-A5/GpH7-B3 variant L235_11K/GpL16-k0 (antibody, human IgG1, kappa)
heavy 1: not shown
heavy 2: not shown
light: B1 light
notes: as for B3
B23: GpH7-A5/GpH7-B3 variant L235_13S/GpL16-k0 (antibody, human IgG1, kappa)
heavy 1: not shown
heavy 2: not shown
light: B1 light
notes: as for B3
B24: GpH7-A5/GpH7-B3 variant L235_14T/GpL16-k0 (antibody, human IgG1, kappa)
heavy 1: not shown
heavy 2: not shown
light: B1 light
notes: as for B3
B25: GpH7-A5/GpH7-B3 variant L235_18N/GpL16-k0 (antibody, human IgG1, kappa)
heavy 1: not shown
heavy 2: not shown
light: B1 light
notes: as for B3
B26: GpH7-A5/GpH7-B3 variant L235_19Q/GpL16-k0 (antibody, human IgG1, kappa)
heavy 1: not shown
heavy 2: not shown
light: B1 light
notes: as for B3

The binders below were run against T3, FcγRIa extracellular domain with C-terminal His tag (human, UniProt P12314 16-292) (assay: SPR; He/Con_1a divided by He/Con_2b (FcγRIa against FcγRIIb)).
T3 construct: extracellular domain; also called FcgRI; CD64; not shown: His tag at the C terminus
T3 sequence (P12314 16-292): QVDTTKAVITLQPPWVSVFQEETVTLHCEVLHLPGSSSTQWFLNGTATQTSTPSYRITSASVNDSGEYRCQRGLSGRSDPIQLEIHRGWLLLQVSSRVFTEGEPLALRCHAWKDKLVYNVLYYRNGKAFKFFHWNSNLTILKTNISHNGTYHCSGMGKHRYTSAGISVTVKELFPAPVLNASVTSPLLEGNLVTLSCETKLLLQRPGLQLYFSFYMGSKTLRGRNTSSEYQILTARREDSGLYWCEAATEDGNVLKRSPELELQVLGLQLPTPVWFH

Binder | He_1a/2b (Ia/IIb)
B1 | 7.05 ratio
B2 | 6.71 ratio

These binders were tested against T1, FcγRIIa H (assay: SPR (Biacore); He/Con_2aH divided by He/Con_2b (FcγRIIa H over FcγRIIb)).

Binder | He_2aH/2b (IIaH/IIb)
B3 | 3.72 ratio
B4 | 2.83 ratio
B5 | 5.04 ratio
B6 | 1.39 ratio
B7 | 1.79 ratio
B8 | 3.45 ratio
B9 | 1.49 ratio
B10 | 1.25 ratio
B11 | 1.2 ratio
B12 | 1.28 ratio
B13 | 2.52 ratio
B14 | 2.53 ratio
B15 | 1.36 ratio
B16 | 1.25 ratio
B17 | 1.25 ratio
B18 | 1.47 ratio
B19 | 1.31 ratio
B20 | 1.53 ratio
B21 | 1.28 ratio
B22 | 3.61 ratio
B23 | 1.37 ratio
B24 | 1.53 ratio
B25 | 1.2 ratio
B26 | 1.45 ratio

The binders below were run against T3, FcγRIa extracellular domain with … (assay: SPR (Biacore), antibody captured, FcγR analyte; relative to GpH7-A5/GpH7-B3/GpL16-k0 = 100).

Binder | He/Con_1a
B1 | 63.3 % of HeCon Ab
B2 | 65.8 % of HeCon Ab

Each binder was assayed against T1, FcγRIIa H (assay: SPR (Biacore), antibody captured, FcγR as analyte; binding relative to GpH7-A5/GpH7-B3/GpL16-k0 = 100).

Binder | He/Con_2aH
B3 | 115 % of control
B4 | 75.8 % of control
B5 | 34.2 % of control
B6 | 135 % of control
B7 | 103 % of control
B8 | 136 % of control
B9 | 75.6 % of control
B10 | 81 % of control
B11 | 120 % of control
B12 | 93.5 % of control
B13 | 40.8 % of control
B14 | 47.7 % of control
B15 | 80.4 % of control
B16 | 78.1 % of control
B17 | 120 % of control
B18 | 87.3 % of control
B19 | 79.2 % of control
B20 | 54.1 % of control
B21 | 85.3 % of control
B22 | 22.7 % of control
B23 | 66.1 % of control
B24 | 71.5 % of control
B25 | 66.1 % of control
B26 | 62 % of control

These binders were tested against T2, FcγRIIb in the same assay as above.

Binder | He/Con_2b
B3 | 31 % of control
B4 | 26.8 % of control
B5 | 6.8 % of control
B6 | 96.7 % of control
B7 | 57.8 % of control
B8 | 39.5 % of control
B9 | 50.7 % of control
B10 | 64.9 % of control
B11 | 99.8 % of control
B12 | 72.9 % of control
B13 | 16.2 % of control
B14 | 18.9 % of control
B15 | 59.3 % of control
B16 | 62.5 % of control
B17 | 96.3 % of control
B18 | 59.4 % of control
B19 | 60.3 % of control
B20 | 35.4 % of control
B21 | 66.4 % of control
B22 | 6.3 % of control
B23 | 48.2 % of control
B24 | 46.8 % of control
B25 | 54.9 % of control
B26 | 42.6 % of control
